Measurements taken from patent US20260347504 (published 2026).

How the values were obtained:
human RAGE ECD = human RAGE ECD (human, UniProt Q15109); experiment: SPR, RAGE immobilized
human TLR4 ECD = human TLR4 ECD (human, UniProt O00206); experiment: SPR, TLR4 immobilized
human TLR4 ECD, sequence (O00206 1-631): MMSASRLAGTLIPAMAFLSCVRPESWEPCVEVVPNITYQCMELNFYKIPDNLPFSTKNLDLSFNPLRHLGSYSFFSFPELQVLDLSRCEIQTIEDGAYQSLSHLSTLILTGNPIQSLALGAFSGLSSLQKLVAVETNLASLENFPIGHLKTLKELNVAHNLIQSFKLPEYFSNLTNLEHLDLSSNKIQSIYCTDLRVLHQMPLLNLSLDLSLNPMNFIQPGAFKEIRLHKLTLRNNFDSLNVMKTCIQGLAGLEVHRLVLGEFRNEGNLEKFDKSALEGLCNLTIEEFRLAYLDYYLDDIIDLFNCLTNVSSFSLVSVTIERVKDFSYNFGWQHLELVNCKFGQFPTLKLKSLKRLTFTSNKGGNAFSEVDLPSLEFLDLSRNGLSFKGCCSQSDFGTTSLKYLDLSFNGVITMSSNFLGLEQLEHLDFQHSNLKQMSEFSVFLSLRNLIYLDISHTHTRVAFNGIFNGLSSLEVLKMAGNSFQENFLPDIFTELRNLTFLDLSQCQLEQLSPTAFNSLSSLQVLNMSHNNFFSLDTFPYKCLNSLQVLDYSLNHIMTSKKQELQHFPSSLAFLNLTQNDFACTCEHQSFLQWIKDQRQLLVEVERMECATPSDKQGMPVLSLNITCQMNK

human RAGE ECD, sequence (Q15109 1-344): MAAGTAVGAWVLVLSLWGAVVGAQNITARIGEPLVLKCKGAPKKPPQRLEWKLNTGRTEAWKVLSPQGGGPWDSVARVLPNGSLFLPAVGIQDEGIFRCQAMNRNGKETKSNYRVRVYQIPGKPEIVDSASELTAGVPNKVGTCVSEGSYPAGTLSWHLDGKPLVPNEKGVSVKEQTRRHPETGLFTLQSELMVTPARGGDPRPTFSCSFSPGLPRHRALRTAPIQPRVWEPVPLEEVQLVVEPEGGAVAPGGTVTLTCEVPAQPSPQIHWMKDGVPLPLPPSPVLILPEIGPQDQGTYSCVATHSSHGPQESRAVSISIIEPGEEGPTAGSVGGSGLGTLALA

- Kd (human RAGE ECD): 3 nM
- Kd (human TLR4 ECD): 64.4 nM
B1: human pCTS-L (protein)
chain: ATLTFDHSLEAQWTKWKAMHNRLYGMNEEGWRRAVWEKNMKMIELHNQEYREGKHSFTMAMNAFGDMTSEEFRQVMNGFQNRKPRKGKVFQEPLFYEAPRSVDWREKGYVTPVKNQGQCGSCWAFSATGALEGQMFRKTGRLISLSEQNLVDCSGPQGNEGCNGGLMDYAFQYVQDNGGLDSEESYPYEATEESCKYNPKYSVANDTGFVDIPKQEKALMKAVATVGPISVAIDAGHESFLFYKEGIYFEPDCSSEDMDHGVLVVGYGFESTESDNNKYWLVKNSWGEEWGMGGYVKMAKDRRNHCGIASAASYPTV
